# Measurements published in the nanobody polyreactivity screen of Harvey et al. (2022).
# Assay: yeast display, Sf9 membrane polyspecificity reagent, FACS + sequencing; frameworks hold sequencing errors
# How it was run: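 Polyreactivity labels are assigned by the sorting gate from which each nanobody was recovered. The gates were low and high (top ~1%), set on anti-HA fluorescence for expression and streptavidin fluorescence for reagent binding. Before sorting, galactose-induced (36–48 hours) yeast display cells were stained for 1 hour at 4 °C with 10% biotinylated, detergent-solubilized Sf9 membrane reagent.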
row,Sequence,polyreactivity (PSR sort gate)
1,QVQLVESGGGVVQAGGRLRLSCAASGGIYRYYAMGWYRQAPGKERELVAVITKSGGDTYYADSVKGRFTISRDNAKNTVYLQMNSLKPEDTAVYYCAAVYGYYTYWIAGFTWAGDYWGQGTQVTVSS,low polyreactivity
2,QVQLVESGGGLVQAGGSLRLSCAASGFTFRYNAMGWYRQAPGKERELVAAISRSGGRTYYADSVKGRFTIARDNAKNTVYLQMNSLKPEDTAVYYCAAVAARITGFGYWGQGTQVTVSS,high polyreactivity
3,QVQLVESGGGLVQPGGSLRLSCAASGSIFRYYAMGWYRQAPGKERELVATIRSGGSTTYADSVKGRFTISRDNAKNTVYLQMNSLKPEDTAVYYCAATYGWRFTTFPSGYASDYYWGQGTQVTVSS,high polyreactivity
4,QVQLVESGGGLVQAGGSLRLSCAASGSTFFRYAMGWYRQAPGKEREFVAAISKRGGSTHYADSVKGRFTISRDNAKNTVYLQMNSLKPEDTAVYYCAASSFTSSYNYWGQGTQVTVSS,high polyreactivity
5,QVQLVESGGGLVQAGGSLRLSCAASGFTFYTFAMGLYRQAPGKERELVASITNGGGTYYADSVKGRFTNSRDNAKNTVYLQMNSLKPEDTAVFYCARRVYYWGRYKDEYNYWGQGTQVTVSS,high polyreactivity
6,QVQRVESGGGLVQAGGSLRLTSAVSGTTFYIYAMGWYRQAPGKEREFVAAIDFSGSSTYADSVKGRFTISRDNAKNTVYLQMNSLKPEDTEVYYCAAYQIFQYDGPYDYWGQGTQVTVSS,low polyreactivity
7,QVQLVESGGGLVQAGGSLRLSCAASGFTFYKYAMGWYRQAPGKEREFVAAISSSGDSTYYADSVKGRFTISRDNAKNTVYLQMNSLKPEDTAVYYCAARRRGTSTTWGQGTQVTVSS,high polyreactivity
8,QVQLVESGGGLVQAGGSLRLSCAASGSFFSTYAMGWYRQAPGKERELVAAISVSGSSTYYADSVKGLFTISRDNAKNTVYLQMNSLKPEDTAVYYCNKAFRSVRPRRRYDYWGQGTQVTVSS,low polyreactivity
9,QVQLVESGGGLVQAGGSLRLSCAASGRIFNSYAMGCYRQAPGKERELVAAINWTDVSTYYADSVKGRFTISRDNAKNTVYLQMNSLKPEDTAVYYCAAVRWGSYTLSDDYWGQGTQVTVSS,low polyreactivity
10,QVQLVESGGGLVQAGGSLRLSCAASGSIFDVYTMGWYRQAPGKDRELVAAINTGGGSTYYADSVKGRFTISRDNAKNTVYLQMNSLKPEDTAVYYCARSRYREWGQGTQVTVSS,low polyreactivity
11,QVQLVESGGGLVQAGGSLRLSCAASGSTFTFYAMGSYRQAPGKERELGAAINGRGGSTYYADSVKGRFTISRDNANNTVYLQMNSLKPEDTADYYCATRLYYSVRYNMGYWGQGTQVTVSS,high polyreactivity
12,QVQLVESGGGLVQAGGSLRLSCAPSGSIFSAYAMGWYRQAPGKERELVAAITRGTSTNYADSVKGRFTISRDNAKNTVYLQMNSLKPEDTAVYYCAAEYGWYYVNFYYWGQGTQVTVSS,low polyreactivity
13,QVQLVESGGGLVQAGGSLRLCCAASGSTFYYYAMGWYRQAPGKEREFVASISSRGTSTYYADSVKGRFTISRDNAKNTVYLQLNSLKPEDTAVYYCAARGWGPTRAYDYSGQGTQVTVSS,high polyreactivity
14,QVQLVESGGGLVQAGGSLRLSCAASGSIFAGYAMGLYRQAPGKERELVAAISRSGDSTYYADSVKGRFTISRDNAKNTVYLQMNSLKPEDTAVYYCAAVLSYSYVRYNYWGQGTQVTVSS,high polyreactivity
15,QVQLVQSGGGLVQAGGSLRLSCAASGSTFTPNDMGWYRQAPGKERELVAAIDWSGGSTYYADSVKGRFTISRDNAKNTVYLQMNSLKPEDTAVYYYNADSSKFYSHGEYEYWGQGTQVTVSS,low polyreactivity
16,QVQLVESGGGLVQAGGSLRLSCAASGITFYFYTMGWYRPAPGKERELVAAITSSGGTTYYADSVKGRFTISRDNAKNTVYLQMNSLKPEDTAVYYCAARRWYQSRRGGFDYWGQGTQVTVSS,high polyreactivity
17,QVQLVESGGGLVQAGGSLRLSCAASGRIFQYYAMGWYRQEPGKERELVAAISGSGGRTYYADSVKGRFTISRDNAKNTVYLQMNSLKPEDTAVYYCNAVYRYYPFDYWGQGTQVTVSS,high polyreactivity
18,QVQLVESGGGLVQAGGSLRLSCAASGYTFPLYAMGWYRQAAGKERELVADINIGGASTYYADSVKGRFTISRHNAKNTVYLQMNSLKPEESAVYYCAKEYYDGYFPTFDYDYWGQGTQVTVSS,low polyreactivity
19,QDQLVESGGGLVQAGGSLRLSCSATGRIFRSYAMGWYRQAPGKERELVASITWRGSSTYYADSVKGRFTISRDNAKNTVYLQMNSRKPEDTAVYYCAKEGYLYLWRYDYWGQGTQVTVSS,high polyreactivity
20,QVQLVESGGGLVQAGGSLRLSCAASGSIFYLYAMGWYRQAPGKERELVAAITWRGGITNYADSVKGRFTISRDNAKNTVYLQMNSLKPEDTAVYYCAADPYRFLATELYYWGQGTQVTVSS,low polyreactivity

row,Sequence,polyreactivity (PSR sort gate)
1,QVQLVESGGGLVQAGGSLRLSCAASGLTFAYYAMGWYRQAPGKERELVAAISLSGGSTYYADSVKGRFTISRDNAKNTVYLQMNSLKPEDTAVYYCNKGSYYWWDPGSTYIDDYWGQGTQVTVSS,low polyreactivity
2,QVQLVESGGGIVQAGGSLRLSCAASGRIFYINAMGWYRQAPGKERELVAAISTSGGCTYYADSVKGRFTISRDNAKKTVYLQMNSLKPEVTAVYYCAAALRYGYYGREYYYWGQGTKVTVSS,high polyreactivity
3,QVQLVESGGGLVQAGGSLRLSCAASGFTFRWYAMGWYRQAPGKERELVAAITSSGGSTYYADSVKGRFTISRDNAKNTVYLQMNSLKPEDTAVYYCNKRFLDLSYHDYDYWGQGTQVTVSS,high polyreactivity
4,QVQLVESGGGLVHAGGSLRLSCAASGRTFSYYTMAWYRQAPGKERELVAAISGRGGSTYYADSVKGRFTISRDNAKNTVYLQMNSLKPEDTAVYYCNVVKQYLGGVPDFDYWGQGTQVTVSS,low polyreactivity
5,QVQHEESGGGLVQAGGSLRLSCAASGRTFLQYAMGWYRQAPGKERELVDAITTSGGDTYYSDSVKGRFTISRDNAKNTVYLQMKSLKPEDTAVFYCNADFRVYIPHVPYLVDFYYWGQGTQVTVSS,low polyreactivity
6,QVQLVESGGGLVQAGGSLRLICAASGRTFTLNVMGWYRQAPGKETEFVATITWGGGRTYYADSVKGRFTISRDNAKNTVYLQMNSLKPVDTAVYYCAGQLAKTIRGRGYNSWGQGTQVTVSS,low polyreactivity
7,QVQLVESGGGLVQAGGSLRLSCAASGRIFGTYAMGWYRQAPGKERELVAAISSSGTSTYYADSVKGRFTISRDNAKNTVYLQMNSLKPEDTAVYYCAADTVSFSILYDYWGQGTQVTVSS,low polyreactivity
8,QVQLVESGGGLVQAGGSLRLSCAASGRIFPPNAMGWYRQAPGKERELVAAITGSGGSTYYADSVKGRFTITRDNAKNTVYLQKNSLKPADTAVYYCAVESLGRVSRGYDYWGQGTQVTVSS,low polyreactivity
9,QVQLVESGGGLVQAGGSLRLSCAASGLTFGSNAMGWYRQAPGKERELVAAITSSGGRTYYADSVKGRFTISRDNAKNTVYLQMNSLKPEVTAVYYCAAVYQILLYFPGRYDYWGQGTQVTVSS,low polyreactivity
10,QVQLVESGGGLVQAGGSLRLSCAASGFIFGIYAMGWYRQAPGKERELVAAISWRGDSTYYADSVKGRFTISRDNAKNTVYLQMNSLKPEDTAVYYCAAVYYKLVGWYSYRYGYWGQGTQVTVSS,low polyreactivity
11,QVQLVESGGGLVQAGGSLRLSCAASGCTIWSSAMGWYRQAPGKERELVASITWSGGSTYADSVKGRFTISRDNAKNTVYLQMNSLKPEDTAVYYCARESTLTYYSDDFDYWGQGTQVTVSS,low polyreactivity
12,QVKLVESGGGLVQAGGSLRLSCAASGFTFSRNTMGWYRQAPGKERELVATISFRGGTTYYADSVKGRFTISRDNAKNTVYLQMNSLKPEDTAVYYCAVKVGFVRLLYHYYYWGQGTQVTVSS,high polyreactivity
13,QVQLVESVGGLVQAGGSLRLSCAASGFIFRGYALGWYRQARGKEWELVAAMNAGDSTNYADSVKGRFTISRDTAKNTVYLQMNSLKPEETAVYYCAASIYAALNGGPGYDYWGQGTQVTVSS,low polyreactivity
14,QVQLVESGGGLVQAGGSLRLSCAASGRIFNQYGMGWYRQAPGKERELVAAIRSGDSTNYADSVKGRFTISRDNAKNTVYLQMNSLKPVDTAVYYFNAYLSPKQPLSPPDPTFEGGYWGQGTQVTVSS,low polyreactivity
15,QVQLVESGGGLVQAGGSLRLSCAASGRIFPRYAMGWYRQAPGKERELVATISSGGSTYYADSVKGRFTISRDNAKNTVYLQMNSLKPEDTAVYYCAARKRPYTVINGMDYWGQGTQVTVSS,low polyreactivity
16,QVQLVESGGGLVQAGGSLRLTCAASGSIFVRNSMGWYRQAPGKERELVAAIIRSGGSTYYADSVKGRFTISRDNAKNTVYLQMNSLKPEDTAVYYCNALIRYNRYTGRDYWGQGTQVTVSS,high polyreactivity
17,QVQLVESGGGLVQAGGSLRLSCAASGSTLGGYAMGWYRQAPGKERELVAAIRWGGNTYYADSVKGRFTISRDNAKNTVYLQMNSLKPEDTAVYYCAADRWYYFLMYYWGQGTQVTVSS,low polyreactivity
18,QVQLVESGGGLVQAGGSLRLSCAASGRTFVTNAMGWYRQAPGKERELVAAISYSGGSTTYADSVKGRFTISRDNAKNTVYLQMNSLKPEDTAVYYCNAQEDLVPKLRYYPPSDYWGQGTQVTVSS,low polyreactivity
19,QDQLVESGGGLVQAGGSLRLSCAASGSIIGWYAMGWYRQARGKERELVAAITFSSVSTYYADSVKGRFTISRDNAKNTVYLQMNSLKPEDTAVYYCAAVVYYTFDYCGQGTQVTVSS,low polyreactivity
20,QVQLVESGGGLVQAGGSLRLSCAASGLTLGRNAMGWYRQAPGKERELVAAITQSGGSTYYADSVKGRFTISRDNAKNTVYLQMNSLKAEDTAVYYCAAEVVRQWHGIGYDYWGQGTQVTVSS,low polyreactivity
